Measurements: US6933132

Tests used:
[1] = target: surface of a PHA-activated T cell (unidentified binding site for soluble attractin-1); test: Scatchard analysis, 125I-labeled soluble attractin on cells, 1 hr at 4 C
[2] = target: surface of a resting T cell (unidentified binding site for soluble attractin-1); test: as above

- Kd [1]: 0.005 to 0.05 nM
- molecules bound per cell (molecules per cell) [1]: 2000
- Kd [2]: 0.005 to 0.05 nM
- molecules bound per cell (molecules per cell) [2]: 1000
Substance: purified natural serum soluble attractin-1, 125I-labeled (from UniProt O75882 1-1267) (ligand)
